Measured values published in the RNAGym collection of RNA variant scans (doi:10.1093/molbev/msab373).

B1: Azoarcus group I ribozyme (parent)
chain: GUGCCUUGCGCCGGGAAACCACGCAAGGGAUGGUGUCAAAUUCGGCGAAACCUAAGCGCCCGCCCGGGCGUAUGGCAACGCCGAGCCAAGCUUCGGCGCCUGCGCCGAUGAAGGUGUAGAGACUAGACGGCACCCACCUAAGGCAAACGCUAUGGUGAAGGCAUAGUCCAGGGAGUGGCGAAAGUCACACAAACCGG

Variants of: B1
Assay: reverse-splicing fitness (ratio to wild type); higher = more active; in vitro selection; Mg2+ level not given
How it was run: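 An in vitro group I ribozyme library with randomized positions was T7-transcribed and gel-purified. In triplicate, 10 pmol RNA in EPPS pH 7.5 was reacted with 50 pmoles of a 30-nt RNA substrate for 1 h at 37 °C across several added MgCl2 levels (1–48 mM), then stopped with EDTA. Products were reverse transcribed from a substrate-complementary primer, PCR-amplified and sequenced (HiSeq 4000). Fitness is a variant's read proportion after selection over that before, normalised to wild type.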
In the case of A111G A120C C150U C169A U176G, the reverse-splicing fitness is reported as 0.00384.
With A111G A120C C150U C169A U176A the reverse-splicing fitness was 0.0182.
In the case of A111G A120C C150U C169A U176C, the reverse-splicing fitness is reported as 0.012.
A111G A120G A145G C150A U176C showed a reverse-splicing fitness of 0.0374.
A111G A120G A145G C150A U176A gave a reverse-splicing fitness of 0.0225.
With A111G A120G A145G C150A U176G the reverse-splicing fitness was 0.00788.
For A111G A120G A145C C169A U176C, the reverse-splicing fitness was 0.0567.
A111G A120G A145C C169A U176G gave a reverse-splicing fitness of 0.00382.
In the case of A111G A120G A145C C169A U176A, the reverse-splicing fitness is reported as 0.0345.
With A111G A120G A145U C150G C169G U176A the reverse-splicing fitness was 0.00768.
With A111G A120G A145U C150G C169G U176C the reverse-splicing fitness was 0.00471.
In the case of A111G A120G A145U C150G C169G U176G, the reverse-splicing fitness is reported as 0.00457.
A111G A120G A145C C150A C169A U176C showed a reverse-splicing fitness of 0.00695.
With A111G A120G A145C C150A C169A U176G the reverse-splicing fitness was 0.00399.
In the case of A111G A120G A145C C150A C169A U176A, the reverse-splicing fitness is reported as 0.0135.
Work on A111G A120G A145G C150U U176G yielded a reverse-splicing fitness of 0.00986.
For A111G A120G A145G C150U U176C, the reverse-splicing fitness was 0.0905.
Variant A111G A120G A145G C150U U176A has a reverse-splicing fitness of 0.0693.
Work on A111G A120G A145G C150A C169G yielded a reverse-splicing fitness of 0.0514.
A111G A120G A145G C150A C169A showed a reverse-splicing fitness of 0.0278.
A111G A120G A145G C150A C169U gave a reverse-splicing fitness of 0.0458.
Work on A111G A120C C169U U176G yielded a reverse-splicing fitness of 0.00675.
A111G A120C C169U U176A showed a reverse-splicing fitness of 0.0684.
Variant A111G A120C C169U U176C has a reverse-splicing fitness of 0.0857.
With A111G A120G A145C C150A C169G U176G the reverse-splicing fitness was 0.00542.
For A111G A120G A145C C150A C169G U176A, the reverse-splicing fitness was 0.0264.
Variant A111G A120G A145C C150A C169G U176C has a reverse-splicing fitness of 0.0168.
With A111G A120C C150U C169G U176C the reverse-splicing fitness was 0.0169.
In the case of A111G A120C C150U C169G U176A, the reverse-splicing fitness is reported as 0.0207.
Variant A111G A120C C150U C169G U176G has a reverse-splicing fitness of 0.00459.
A111G A120G A145G C150G C169U U176G gave a reverse-splicing fitness of 0.00654.
A111G A120G A145G C150G C169U U176A gave a reverse-splicing fitness of 0.012.
In the case of A111G A120G A145G C150G C169U U176C, the reverse-splicing fitness is reported as 0.0152.
A111G A120C C150A C169G showed a reverse-splicing fitness of 0.00862.
For A111G A120C C150A C169A, the reverse-splicing fitness was 0.00922.
Work on A111G A120C C150A C169U yielded a reverse-splicing fitness of 0.0403.
A111G A120G A145G C169G U176A gave a reverse-splicing fitness of 0.0887.
In the case of A111G A120G A145G C169G U176C, the reverse-splicing fitness is reported as 0.134.
A111G A120G A145G C169G U176G showed a reverse-splicing fitness of 0.00622.
For A111G A120C A145U C169A U176G, the reverse-splicing fitness was 0.00333.
With A111G A120C A145U C169A U176C the reverse-splicing fitness was 0.0103.
Work on A111G A120C A145U C169A U176A yielded a reverse-splicing fitness of 0.00811.
Variant A111G A120C C150A has a reverse-splicing fitness of 0.124.
Variant A111G A120C C150G has a reverse-splicing fitness of 0.0783.
A111G A120C C150U gave a reverse-splicing fitness of 0.528.
Variant A111G A120C A145U C150A C169U has a reverse-splicing fitness of 0.033.
For A111G A120C A145U C169U U176A, the reverse-splicing fitness was 0.0589.
Work on A111G A120C A145U C169U U176C yielded a reverse-splicing fitness of 0.0719.
A111G A120C A145U C169U U176G showed a reverse-splicing fitness of 0.00772.
In the case of A111G A120G A145G C150U C169G U176A, the reverse-splicing fitness is reported as 0.0549.
Variant A111G A120G A145G C150U C169G U176C has a reverse-splicing fitness of 0.078.
In the case of A111G A120G A145G C150U C169G U176G, the reverse-splicing fitness is reported as 0.00563.
A111G A120G C150A C169G U176A gave a reverse-splicing fitness of 0.0259.
A111G A120G C150A C169G U176C showed a reverse-splicing fitness of 0.0343.
A111G A120G C150A C169G U176G showed a reverse-splicing fitness of 0.00566.
Work on A111G A120C C150A U176C yielded a reverse-splicing fitness of 0.0799.
Work on A111G A120C C150A U176G yielded a reverse-splicing fitness of 0.0222.
In the case of A111G A120C C150A U176A, the reverse-splicing fitness is reported as 0.0735.
With A111G A120C A145U U176G the reverse-splicing fitness was 0.172.
Work on A111G A120C A145U U176A yielded a reverse-splicing fitness of 0.482.
Variant A111G A120C A145U U176C has a reverse-splicing fitness of 0.45.
A111G A120G A145U C150A C169G U176C showed a reverse-splicing fitness of 0.0243.
With A111G A120G A145U C150A C169G U176A the reverse-splicing fitness was 0.0201.
A111G A120G A145U C150A C169G U176G gave a reverse-splicing fitness of 0.00424.
A111G A120G A145G C150A C169G U176C gave a reverse-splicing fitness of 0.0371.
In the case of A111G A120G A145G C150A C169G U176G, the reverse-splicing fitness is reported as 0.00578.
Work on A111G A120G A145G C150A C169G U176A yielded a reverse-splicing fitness of 0.0262.
For A111G A120G A145U C150U C169U U176C, the reverse-splicing fitness was 0.0675.
A111G A120G A145U C150U C169U U176A gave a reverse-splicing fitness of 0.0647.
With A111G A120G A145U C150U C169U U176G the reverse-splicing fitness was 0.00675.
For A111G A120G A145C C150A C169U U176C, the reverse-splicing fitness was 0.0129.
For A111G A120G A145C C150A C169U U176G, the reverse-splicing fitness was 0.00508.
With A111G A120G A145C C150A C169U U176A the reverse-splicing fitness was 0.0233.
A111G A120C A145U C150G C169U U176G gave a reverse-splicing fitness of 0.00422.
In the case of A111G A120C A145U C150G C169U U176A, the reverse-splicing fitness is reported as 0.0072.
Variant A111G A120C A145U C150G C169U U176C has a reverse-splicing fitness of 0.0159.
With A111G A120C A145U C150G C169G the reverse-splicing fitness was 0.00597.
A111G A120C A145U C150G C169U gave a reverse-splicing fitness of 0.0352.
For A111G A120C A145U C150G C169A, the reverse-splicing fitness was 0.00821.
A111G A120G C150G C169A gave a reverse-splicing fitness of 0.0164.
Variant A111G A120G A145G C150G U176C has a reverse-splicing fitness of 0.0227.
In the case of A111G A120G A145G C150G U176A, the reverse-splicing fitness is reported as 0.0132.
Variant A111G A120G A145G C150G U176G has a reverse-splicing fitness of 0.00619.
